Literature values in PMC9147092.
Read-outs that look alike come from different tables or passages of the source. Blank lines part the entries; values can stand above or below the substance they belong to.

Legend:
BiP (Homo sapiens) [1] = target: BiP (Homo sapiens) (UniProt P11021)
BiP (Homo sapiens) [2] = target: BiP (Homo sapiens) (UniProt P11021); remark: listed apart in the source
BiP (Homo sapiens) [3] = target: BiP (Homo sapiens) (UniProt P11021); remark: listed apart in the source
ERdj2 (Homo sapiens) = ERdj2 (Homo sapiens) (UniProt Q9UGP8)
UniProt Q9UGP8, sequence (Q9UGP8 whole entry): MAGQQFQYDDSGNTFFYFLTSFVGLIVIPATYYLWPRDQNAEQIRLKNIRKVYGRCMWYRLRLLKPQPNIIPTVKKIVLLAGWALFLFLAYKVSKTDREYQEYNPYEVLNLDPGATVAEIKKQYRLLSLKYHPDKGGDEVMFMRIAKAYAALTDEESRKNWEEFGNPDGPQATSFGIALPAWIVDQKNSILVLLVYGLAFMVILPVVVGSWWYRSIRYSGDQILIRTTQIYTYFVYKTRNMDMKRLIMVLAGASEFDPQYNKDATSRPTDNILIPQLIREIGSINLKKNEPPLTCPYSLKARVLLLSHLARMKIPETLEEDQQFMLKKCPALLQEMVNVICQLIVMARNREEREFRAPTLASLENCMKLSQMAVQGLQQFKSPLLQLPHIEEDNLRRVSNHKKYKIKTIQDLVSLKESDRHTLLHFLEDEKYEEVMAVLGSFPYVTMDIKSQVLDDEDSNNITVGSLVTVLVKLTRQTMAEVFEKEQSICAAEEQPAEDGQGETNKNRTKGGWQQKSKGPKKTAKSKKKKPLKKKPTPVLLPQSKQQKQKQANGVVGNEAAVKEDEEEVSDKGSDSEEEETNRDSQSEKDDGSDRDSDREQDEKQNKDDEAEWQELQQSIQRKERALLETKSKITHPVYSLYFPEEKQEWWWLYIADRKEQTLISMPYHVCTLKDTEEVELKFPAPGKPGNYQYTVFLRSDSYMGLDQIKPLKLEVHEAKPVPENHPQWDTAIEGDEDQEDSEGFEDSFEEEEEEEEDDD

UniProt P11021, sequence (P11021 19-654): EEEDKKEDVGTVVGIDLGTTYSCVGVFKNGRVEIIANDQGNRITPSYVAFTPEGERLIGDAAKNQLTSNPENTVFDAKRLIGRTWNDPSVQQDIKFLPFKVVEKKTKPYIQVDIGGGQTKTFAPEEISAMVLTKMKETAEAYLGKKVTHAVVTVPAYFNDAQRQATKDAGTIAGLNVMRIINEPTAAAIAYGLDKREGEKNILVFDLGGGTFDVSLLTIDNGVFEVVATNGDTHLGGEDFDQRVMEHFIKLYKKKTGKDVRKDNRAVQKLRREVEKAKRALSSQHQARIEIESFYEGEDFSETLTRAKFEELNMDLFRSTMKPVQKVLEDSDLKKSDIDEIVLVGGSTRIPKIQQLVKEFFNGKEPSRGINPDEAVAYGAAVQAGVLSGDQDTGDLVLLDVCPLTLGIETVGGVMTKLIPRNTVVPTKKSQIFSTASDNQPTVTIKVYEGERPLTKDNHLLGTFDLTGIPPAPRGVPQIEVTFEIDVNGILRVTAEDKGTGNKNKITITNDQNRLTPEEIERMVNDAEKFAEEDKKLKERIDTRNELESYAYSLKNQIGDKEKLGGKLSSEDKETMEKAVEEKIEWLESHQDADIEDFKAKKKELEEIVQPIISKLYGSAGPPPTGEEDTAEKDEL

Kd (BiP (Homo sapiens) [1]): 570 nM
Substance: ERdj1 (from UniProt Q96KC8)

Kd (BiP (Homo sapiens) [2]): 5000 nM
Substance: ERdj6 (from UniProt Q13217)

Kd (BiP (Homo sapiens) [3]): 830 nM
Substance: PERK luminal domain (from UniProt Q9NZJ5)

Kd (ERdj2 (Homo sapiens)): 5 nM
Substance: Sec62 (from UniProt Q99442)
